Legend:
human TROP2 = target: T1, human TROP2 (Homo sapiens, UniProt P09758); assay: Flow cytometry, cell surface binding on JIMT-1, MCF-7, T-47D and ZR-75-1 cells; conditions: compared to unconjugated Sacituzumab
T1 construct: JIMT-1, MCF-7, T-47D and ZR-75-1 cells expressing human TROP2; endogenous in cells; host or cells: JIMT-1, MCF-7, T-47D, ZR-75-1
T1 sequence (P09758 27-323): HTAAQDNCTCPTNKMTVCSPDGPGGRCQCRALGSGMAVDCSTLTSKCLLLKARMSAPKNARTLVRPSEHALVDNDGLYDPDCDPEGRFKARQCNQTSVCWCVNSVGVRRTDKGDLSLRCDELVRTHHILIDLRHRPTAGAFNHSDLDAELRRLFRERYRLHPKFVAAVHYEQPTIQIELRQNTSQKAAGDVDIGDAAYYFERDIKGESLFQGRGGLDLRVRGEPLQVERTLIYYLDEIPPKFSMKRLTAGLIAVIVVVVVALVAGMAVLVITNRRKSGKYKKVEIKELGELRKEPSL
Method: (§1) The in vitro binding properties of antibody-chelator conjugates were assessed in various relevant cell lines and compared to their corresponding unconjugated antibody. Briefly, samples were diluted in buffer (PBS/3% FBS) and added to relevant cell lines. After completion of the binding step (60 min at 4°C), the cells were washed and incubated with secondary antibody conjugated with phycoerythrin to detect antibodies containing a human IgG Fc region. After 60 min at 4°C, the cells were washed, and fluorescence on the cells was determined by flow cytometry using Guava EasyCyte 8HT (Luminex).

CEACAM5 [1] = target: T2, CEACAM5 (Homo sapiens, UniProt P06731); assay: Flow cytometry, cell surface binding on MKN-45 and HT-55 cells; set-up: MKN-45 and HT-55 cells expressing human CEACAM5; endogenous in cells; host or cells: MKN-45, HT-55; conditions: compared to unconjugated Labetuzumab
T2 sequence (P06731 35-702): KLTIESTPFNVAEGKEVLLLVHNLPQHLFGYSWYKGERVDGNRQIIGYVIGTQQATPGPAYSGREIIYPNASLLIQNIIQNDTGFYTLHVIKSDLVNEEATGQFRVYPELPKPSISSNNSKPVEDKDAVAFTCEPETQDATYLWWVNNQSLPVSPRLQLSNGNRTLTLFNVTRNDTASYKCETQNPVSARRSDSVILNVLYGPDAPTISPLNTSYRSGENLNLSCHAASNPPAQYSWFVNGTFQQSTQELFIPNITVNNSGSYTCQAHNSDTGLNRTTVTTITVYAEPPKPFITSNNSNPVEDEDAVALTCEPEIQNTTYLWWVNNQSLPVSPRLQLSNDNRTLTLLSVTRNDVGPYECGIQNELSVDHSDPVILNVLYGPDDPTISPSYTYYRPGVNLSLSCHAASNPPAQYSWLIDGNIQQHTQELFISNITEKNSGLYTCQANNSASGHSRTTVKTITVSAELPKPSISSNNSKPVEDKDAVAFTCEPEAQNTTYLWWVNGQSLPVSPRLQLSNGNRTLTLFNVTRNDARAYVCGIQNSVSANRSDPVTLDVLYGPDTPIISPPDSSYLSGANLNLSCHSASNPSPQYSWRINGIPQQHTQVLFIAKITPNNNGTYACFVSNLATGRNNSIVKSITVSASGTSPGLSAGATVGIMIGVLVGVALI
Method: as §1
Cell surface binding of Labetuzumab-macropa was compared to unconjugated Labetuzumab and investigated by flow cytometry using MKN-45 and HT-55 cells expressing human CEACAM5 (Figure 19).

human glypican-3 [2] = target: T3, human glypican-3 (Homo sapiens, UniProt P51654); assay: Flow cytometry, cell surface binding on Hep3B2 cells; set-up: Hep3B2 cells expressing human glypican-3; endogenous in cells; host or cells: Hep3B2; conditions: compared to unconjugated Codrituzumab
Method: as §1
Cell surface binding of Codrituzumab-macropa was compared to unconjugated Codrituzumab and was investigated by flow cytometry using Hep3B2 cells expressing human glypican-3 (Figure 11).

human FolRa = target: T4, human FolRa (Homo sapiens, UniProt P15328); assay: Flow cytometry, cell surface binding on OUMS-23 and T-47D cells; conditions: compared to the unconjugated antibody
T4 construct: OUMS-23 and T-47D cells expressing human FolRa; endogenous in cells; host or cells: OUMS-23, T-47D
T4 sequence (P15328 25-257): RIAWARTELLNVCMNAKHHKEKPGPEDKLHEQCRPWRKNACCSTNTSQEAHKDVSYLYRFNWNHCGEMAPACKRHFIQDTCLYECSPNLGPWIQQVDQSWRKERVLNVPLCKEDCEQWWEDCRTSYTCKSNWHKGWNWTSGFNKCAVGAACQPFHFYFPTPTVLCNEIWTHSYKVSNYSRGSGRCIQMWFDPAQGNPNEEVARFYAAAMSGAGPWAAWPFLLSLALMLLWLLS
Method: as §1
Cell surface binding of Farletuzumab-macropa and Farletuzumab-DOTA was compared to unconjugated Farletuzumab and investigated by flow cytometry using OUMS-23 and T-47D cells expressing human FolRa (Figure 43).
Cell surface binding of Mirvetuximab-macropa and Mirvetuximab-DOTA was compared to unconjugated Mirvetuximab and investigated by flow cytometry using OUMS-23 and T-47D cells expressing human FolRa (Figure 47).

human glypican-3 [3] = target: T3, human glypican-3; assay: ELISA, binding to recombinant human glypican-3; conditions: compared to unconjugated Codrituzumab
Method: The relevant antigen was immobilized on ELISA plate by absorption. The plate was washed (PBS with 0.1% Tween 20) and incubated with blocking buffer (PBS + 3% BSA) for 2 h ± 1 h to reduce unspecific binding. Relevant antibodies and ACCs diluted in assay buffer (PBS with 0.05% Tween 20 + 1.5% BSA). The blocking buffer was discarded, and the antibodies and ACCs and controls were applied in triplicates to the plate according to a plate set-up defined in each protocol. After incubation for 1 h ± 30 min at RT, the plate was washed. A horse radish peroxidase (HRP)-conjugated secondary antibody binding specifically to the primary mAb (anti-human IgG-HRP) was added to the plate. After incubation for 1 hour ± 30 min at RT, the plate was washed. A chromogenic substrate (2,2'-azino-bis (3-ethylbenzothiazoline-6-sulphonic acid) (ABTS)), for HRP leading to the formation of a green color was added to the plate and used for detection. The absorbance of the colored reaction product was measured with an absorbance plate reader, e.g. EnVision 2103 Multilabel Reader from Perkin Elmer, or iMark Microplate Absorbance Reader from Bio-Rad.
Absorbance against the log of the antibody concentration was plotted on the GraphPad Prism software. […]

GUCY2C = GUCY2C (Homo sapiens, UniProt P25092); assay: Flow cytometry, cell surface binding on CHO-GUCY2C cells; set-up: expressed in transfected cells; host or cells: CHO; conditions: compared to unconjugated Indusatumab
Method: as §1
Cell surface binding of Indusatumab-macropa was compared to unconjugated Indusatumab and investigated by flow cytometry using CHO-GUCY2C cells expressing human GUCY2C (Figure 31).

[4] = Chelation of bismuth-213 by iTLC after Ac-225 labelling; assay type: physicochemical; conditions: measured immediately and on Day 1 and Day 2 at room temperature
Method: In brief, an iTLC paper impregnated with a silica gel plate was cut to obtain 11 cm × 1 cm strips. Application point (1 cm), cut point (4 cm) and end of run point (10 cm) was marked and 2 µl of TAC was applied on to iTLC strips. The strips were developed in 3 mL mobile phase (0.1 M Citrate in 0.9%(v/v) NaCl pH 5.5) in LSC vials. […] When the liquid front had reached the marked end point, the strips were removed from the vials and placed on an aluminum foil to dry. The strips were cut in two at 4 cm: the shorter "application" half (A) and the longer "front" half (F). Each part was carefully folded and placed at the bottom of scintillation vials. […] The radiochemical purity (% RCP) of the samples (defined as [(radioactivity of application section)/(total radioactivity on strip)] × 100) was calculated. Table 2: Radiochemical purity (% RCP) of samples included in this invention.
Pelgi-macropa labeling was performed for 60 min at room temperature the two DOTA compounds were labeled at 60°C for 60 min. The percentage chelation of Bi-213 was determined using iTLC and measured on the Germanium Detector using the specific energy of Bi-213. After initial radiolabelling, compounds were measured immediately and on Day 1 and Day 2 after incubation at room temperature. […]

LK-2 lung cancer model = assay: In vivo antitumor efficacy in LK-2 model; set-up: species or system mice
Text: Female BALB/c nude mice were inoculated subcutaneously with 1×10^6 LK-2 cells. When tumors reached an average size of ~190mm^3, animals were randomized into treatment groups (n=12 per group) and treatment was started.
(**, P=0.0024. ****, […]) (Figure 28).

[5] = tested on: C4-2, JIMT-1, T-47D, NCI-N87 and Calu-3; conditions: 2 to 40 kBq/µg; 6 days; vs isotype control
Method: In vitro cytotoxicity of Ac-225-ACC was determined in cell lines expressing different levels of relevant target receptors. Cells were seeded at an appropriate cell density in relevant cell media. One day after seeding, the radiolabeled compounds at the specific activity of 2-20 kBq/µg and radioactive concentration of 50-100 kBq/ml were titrated in parallel with a radiolabeled isotype control. Cells were incubated for 5-6 days. Cell viability was determined by cell counting using Hoechst and PI staining and analyzed on Operetta CLS High Content Analysis System (Perkin Elmer) or by ATP measurements using CellTiterGlo (Promega).
C4-2, JIMT-1, T-47D, NCI-N87 and Calu-3 were seeded at an appropriate cell density in the following cell media respectively: RPMI + 10% FBS + 1x MEM-NEAA + 1x HEPES + 1x Na Pyruvate; DMEM + 10% FBS; RPMI + 10% FBS + 10 µg/ml insulin; RPMI + 10% FBS; RPMI + 10% FBS. […] Cells were treated for 6 days and subsequentially cell viability was determined using CellTiterGlo (Promega).

CEACAM5 [6] = target: T2, CEACAM5; assay: Immunoreactive fraction (IRF), binding to CEACAM5-coated beads; conditions: 2 kBq/µg
Method: Shortly after completion of the radiolabeling, the binding was assessed by measuring the fraction of radiolabeled antibody-chelator conjugate bound to relevant antigen coated magnetic beads (Thermo Fisher Scientific). In short, beads were placed in 2 mL Eppendorf tubes in 90 µL buffer (PBS/0.1% Tween 20/1% BSA). The radiolabeled compounds were diluted to 5 Bq/µL in buffer and 50 Bq were added to each bead-containing tube. The binding lasted for 60 min while shaking at 750 rpm at room temperature. After completion of the binding step, magnet (DynaMag-2) was used to separate the beads from […] supernatant. The radio activities in the supernatant and in the beads of each sample were measured using a high purity Germanium detector (Ortec). […] Total binding was defined as [(activity in beads […])/ (total activity)] × 100.
Shortly after completion of the radiolabeling, the binding of each sample to CEACAM5-coated M270-carboxy Dynabeads was determined.

[7] = tested on: GPC3 low-expressing hepatoma xenograft model Huh-7; conditions: 168h; 500 kBq/kg IV, 0,75 mg/kg total protein
Method: Female RJ: NRMI-Foxn1nu/nu mice were inoculated with 2 × 10^6 Huh-7 cells on the right flank. Animals were pre-treated with 200 µg/mouse unspecific IgG2a antibody 24 h prior to hot dosing.

[8] = tested on: Huh-7 hepatoma expressing GPC3; assay: In vivo efficacy in Huh-7 xenograft; set-up: species or system Mice
Text: • Figure 1. […] Size-exclusion UV chromatogram of Codrituzumab-macropa. • Figure 9. […] Size-exclusion UV chromatogram of Labetuzumab-macropa. • Figure 18. […] Internalization of Labetuzumab. […] Size-exclusion UV chromatogram of Sacituzumab-macropa. • Figure 25. […] Size-exclusion UV chromatogram of Indusatumab-macropa. • Figure 30. […] Size-exclusion UV chromatogram of Telisotuzumab-macropa. • Figure 36.

[9] = tested on: HepG2 and Hep3B2.1-7 cells; conditions: 2 MBq/mg, 5 kBq/ml; 6 days; vs radiolabeled isotype control
Method: Cells were seeded at an appropriate cell density in relevant cell media. One day after seeding, the radiolabeled compounds at the specific activity of 2-20 kBq/µg and radioactive concentration of 50-100 kBq/ml were titrated in parallel with a radiolabeled isotype control. Cells were incubated for 5-6 days. Cell viability was determined by cell counting using Hoechst and PI staining and analyzed on Operetta CLS High Content Analysis System (Perkin Elmer) or by ATP measurements using CellTiterGlo (Promega).
HepG2 and Hep3B2.1-7 cells were seeded at an appropriate cell density in the cell media MEM + 10% FBS. HepG2 cells have higher GPC3 expression on the cell surface than Hep3B2.1-7 cells. One day after seeding the compounds at the specific activity of 2 MBq/mg and radioactive concentration of 5 kBq/ml were titrated in parallel with a radiolabeled isotype control. Cells were incubated for 6 days and subsequentially cell viability was determined using Hoechst and PI staining and analyzed on Operetta CLS High Content Analysis System (Perkin Elmer).

Sacituzumab-macropa
EC50 (human TROP2): comparable EC50 as unconjugated Sacituzumab

Labetuzumab-macropa
EC50 (CEACAM5 [1]): comparable EC50 as unconjugated Labetuzumab

Codrituzumab-macropa
EC50 (human glypican-3 [2]): comparable EC50 as unconjugated Codrituzumab

Farletuzumab-DOTA [reference compound]
EC50 (human FolRa): higher EC50 than unconjugated Farletuzumab in both cell lines

Codrituzumab-DOTA
EC50 (human glypican-3 [3]): higher EC50 than unconjugated Codrituzumab

Indusatumab-macropa
EC50 (GUCY2C): comparable EC50 as unconjugated Indusatumab

Pelgi-macropa: actinium-225 complexed to a macropa chelator covalently linked to the fully human PSMA-targeting antibody pelgifatamab (CAR 0.8)
chelation of Bismuth-213 [4]: chelated by macropa

Farletuzumab-macropa
EC50 (human FolRa): comparable EC50 in both cell lines as unconjugated Farletuzumab

Mirvetuximab-DOTA [reference compound]
EC50 (human FolRa): higher EC50 than unconjugated Mirvetuximab in OUMS-23 cells

pelgifatamab-DOTA: pelgifatamab-DOTA (CAR 12.7) labeled with Actinium-225
chelation of Bismuth-213 [4]: not chelated to the same extent with DOTA

Ac-225-macropa-Sacituzumab: Ac-225 macropa complex bound to the anti-TROP2 monoclonal antibody Sacituzumab
tumor growth inhibition (LK-2 lung cancer model; 100 or 200 kBq/kg, i.v., single dose day 0): strong tumor growth inhibition at both doses tested
Antitumor activity compared to Trodelvy (LK-2 lung cancer model; Trodelvy 20 mg/kg i.v. day 0,7,14): significantly improved as compared to Trodelvy
cytotoxicity [5]: strong and specific cytotoxicity

Ac-225-macropa-Labetuzumab
IRF (CEACAM5 [6]; 33 µg beads): 43%
IRF (CEACAM5 [6]; 100 µg beads): 88%
IRF (CEACAM5 [6]; 333 µg beads): 97%

Mirvetuximab-macropa
EC50 (human FolRa): comparable EC50 in both cell lines as unconjugated Mirvetuximab

Ac-225-macropa-Codrituzumab: Ac-225 macropa complex bound to the anti-GPC3 monoclonal antibody Codrituzumab
tumor uptake [7]: significantly higher tumor uptake at 168h compared to Ac-225-macropa-isotype-control
anti-tumor activity ([8]; 500 kBq/kg single dose IV, repeat dose 250 kBq/kg on day 25, compared to isotype control): significantly higher anti-tumor activity
body weight loss ([8]; during the course of the study): No body weight loss
cytotoxicity [9]: strong and specific cytotoxicity

Source: patent publication EP4552657A1, “RADIOPHARMACEUTICAL COMPLEXES AND COMBINATIONS” (priority 2023, dated 2025)
